Test results as given in the supplement of paper PMC9170038.

Each sequence was assayed on MS2 coat protein (assay: apparent KD of MS2 coat protein; higher = weaker reporter binding). Settings: Eterna round: R107; input ligand: none.
Method in brief: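 Designed RNA switches were transcribed on-chip from Illumina sequencing clusters. They were then titrated with SNAP-549-labelled MS2 coat protein (twofold steps, 0.7 or 1.5 nM to 3 µM; 0.8–1.5 h to 10–20 min per step) in 100 mM Tris-HCl pH 7.5, 80 mM KCl, 4 mM MgCl2, without or with constant ligand. Apparent KD is the per-design median of normalised cluster binding-curve fits.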

| Sequence | apparent KD of MS2 coat protein [nM] |
| --- | --- |
| CCGGCCAGGGCGGCCGCCACUGAACGUGGAAGAAAGAAAACAUGAGGAUCACCCAUGUAAAUCCUCAGGACCGGGCCAGGGCCGG | 57.8 |
| AUCCCGUGAGCGGCCGCCACUGGAGGCUUUGCGCGACAUGAGGAUCACCCAUGUGUGCCCGGCGUUAGGACCGGGUUCGCGUGGA [#1 Same State - Tryptophan B Attempt #17 (HarryS)] | 25.6 |
| GGCGUCGGGCGAAGGAGCGUGAAGACAUGAGGAUCACCCAUGUAGAGGCCCGGACAGGGUUCGCAGGUAGGUCGCGCGCGGUGCC [#1 Same State - Arginine B Attempt #7 (HarryS)] | 13.7 |
| ACAUGAGGAUCACCCAUGUGUGUAAGUUCUCGAGGACCGGUACGGCCGCCACUCGAACGAGUGUAACGUUAUACUUAGUAUAAUG [SS Trp A s4] | 11.4 |
| GUUGGUUUGCGAAGGAGCGGGUAUGUUUUCUACUGGAUCCUAACAUGAGGAUCACCCAUGUCCCAGGUAGGUCGCGCGGGCUUUG [12.aA] | 38.6 |
| GAGUAGAGGACGGCCGCCACUGAACAUGAGGAUCACCCAUGUCGUGAUCCGUUGCCUGAAGAAGAUAGGACCGGGUCAUGUGCUC [Exclusion Tryptophan B GF 20] | 28.6 |
| GGACGAAGUUUCUUGUCCGGUCGCUGAGAAGGAGCGCGGUAAACCGCAGGUAGGUCGCUCAGAAAUACAUGAGGAUCACCCAUGU [Orsosous] | 21.1 |
| UGAUCCUGCAGGGAUACCAGCGCCGCUAGAUAACUAUGCACAUGAGGAUCACCCAUGUAACGCCCUUGGCAGCCCAGCUAAAGGG [Same State Theophylline B GF22] | 58.7 |
| AACGUAUACAGAAGGAGCGUGAAAUAAGUAAAUUAAUAAUAAACAUGAGGAUCACCCAUGUCACAGGUAGGUCGCUGUAUUCGUA [JR_ExcArginiB_Sub017] | 21.5 |
| AGUCUUAUAGGAAGGAGCGCAAUCAUCACAUGAGGAUCACCCAUGUCAAGGUGAGAGUCAUUGCAGGUAGGUCGCCUAACUAAGA [Same State - Arginine B (Freestyle 9)] | 241 |
| UGAACAUGAGGAUCACCCAUGUAGAGGGAAGGAGCGUCGAAGAAGACAGGUAGGUCGCCCAGAAAGAAAUCCUCAUGGAUAAGAA [Same State Arginine A GF2] | 54.4 |
| CCUUACGUUGGGCAGCCAGUUCGAAGUGAUACCAGUCACAAAAGUGACCCUUGGCAGCACCGCACAUGAGGAUCACCCAUGUCUA [SSThA NP+V+V2 #8 Same Structure] | 34.8 |
| GCUUGGGUCGCAAGGCCCUGGCGUUGCGAUACCAGCACGGUAACGUGCCCUUGGCAGCGCACAUGAGGAUCACCCAUGUGGUGCG [#1 Exclusion - Theophylline A Attempt #22 (HarryS)] | 18.3 |
| AGGGAAUGAAUAGAAUGAGAUGACACAGAAGGAGCGCCGAUUAAGGCAGGUAGGUCGCUGACAACAUGAGGAUCACCCAUGUUAA [#11 Same State - Arginine A] | 17 |
| UCGCGAUAGAGAAGGAGCGUCAACACCACAGAACAUGAGGAUCACCCAUGUGUUACUUUUAGACAGGUAGGUCGCUCUAGCGCUU [JR_Nu_ExcArginiB_Sub028] | 12.2 |
| AUACAUGAGGAUCACCCAUGUCACACAGAAGGAGCGGCUGUAGAGCCAGGUAGGUCGCUGUACUCAAAAUACUUCAUACUCAUGU [JR_Nu_ExcArginiA_Sub033] | 33 |
| UUCGUUUGCGGAAGGAGCGACGGACAUCGGUGAACGACGCACAUGAGGAUCACCCAUGUACGUCAGGUAGGUCGCCGCUAAGAGU [Tibira] | 18 |
| UCACGACGCAACGUGAAAUAAUAAACAGAAGGAGCGAGGAAAGCCUCAGGUAGGUCGCUGACAUGAGGAUCACCCAUGUAUUACA [Same State Arginine A GF5] | 31.5 |
| UUCUUUAAGUCGGCCGCCACUGAAACAUGAGGAUCACCCAUGUAUAUUUGUGUAUAGGUGGAUUACAGGACCGGGACUAUAGUAA [JR_ExcTryptoB_Sub023] | 14.7 |
| AAAAUCCUACCUGAGGAUCACCCAGGUGAAGGAGCGCCCGAAAGGGCAGGUAGGUCGCACCUGAGGAUCACCCUGGUACCUAAAA [ArgAX 27 #DoubleMs2 #OpenEnded #AlternativeMS2] | 61 |

Same assay, conditions: Eterna round: R107; input ligand: theophylline 20 uM

| Sequence | apparent KD of MS2 coat protein [nM] |
| --- | --- |
| UGUAUGGACUGAAGGAGCGGGAAAUAAACCUGAGGAACACCCAGGUAAUAGGCGAAAGCCACCCAGGUAGGUCGCAGUCCAUACU | 14.8 |
| CCGGCCAGGGCGGCCGCCACUGAACGUGGAAGAAAGAAAACAUGAGGAUCACCCAUGUAAAUCCUCAGGACCGGGCCAGGGCCGG | 71 |
| AUCCCGUGAGCGGCCGCCACUGGAGGCUUUGCGCGACAUGAGGAUCACCCAUGUGUGCCCGGCGUUAGGACCGGGUUCGCGUGGA [#1 Same State - Tryptophan B Attempt #17 (HarryS)] | 71.3 |
| GCUUAGAAACCUGAUACCAGUCAGCCCUAUGACAUGAGGAUCACCCAUGUGAUACUCACGGACCCUUGGCAGCAGGGUCGAUUAC [theeternabot_sameState_MS2_Theo_B_17] | 812 |
| UAUGAGCGCACGGCCGCCACUGUCUUCAUCUGUUUGUCUACAUGAGGAUCACCCAUGUUGGUUUACAGGACCGGGUGCAACUAUG [SSTryp B #10] | 38.1 |
| GGCGUCGGGCGAAGGAGCGUGAAGACAUGAGGAUCACCCAUGUAGAGGCCCGGACAGGGUUCGCAGGUAGGUCGCGCGCGGUGCC [#1 Same State - Arginine B Attempt #7 (HarryS)] | 23.2 |
| ACAUGAGGAUCACCCAUGUGUGUAAGUUCUCGAGGACCGGUACGGCCGCCACUCGAACGAGUGUAACGUUAUACUUAGUAUAAUG [SS Trp A s4] | 21.3 |
| GUUGGUUUGCGAAGGAGCGGGUAUGUUUUCUACUGGAUCCUAACAUGAGGAUCACCCAUGUCCCAGGUAGGUCGCGCGGGCUUUG [12.aA] | 75.2 |
| UUAAAUGUGACGGAUACCAGCGUGUUGUAGAACAUGAGGAUCACCCAUGUAGUGAUCAAGCGCCCUUGGCAGCUGGUAUGUUUGA [7.Z] | 224 |
| GAGUAGAGGACGGCCGCCACUGAACAUGAGGAUCACCCAUGUCGUGAUCCGUUGCCUGAAGAAGAUAGGACCGGGUCAUGUGCUC [Exclusion Tryptophan B GF 20] | 44.7 |
| GGACGAAGUUUCUUGUCCGGUCGCUGAGAAGGAGCGCGGUAAACCGCAGGUAGGUCGCUCAGAAAUACAUGAGGAUCACCCAUGU [Orsosous] | 27.2 |
| UGAUCCUGCAGGGAUACCAGCGCCGCUAGAUAACUAUGCACAUGAGGAUCACCCAUGUAACGCCCUUGGCAGCCCAGCUAAAGGG [Same State Theophylline B GF22] | 60.1 |
| AACGUAUACAGAAGGAGCGUGAAAUAAGUAAAUUAAUAAUAAACAUGAGGAUCACCCAUGUCACAGGUAGGUCGCUGUAUUCGUA [JR_ExcArginiB_Sub017] | 23.6 |
| AUUGUGAAGUCGGCCGCCACUGGUUAGUUUAACCUCAUGUAACAUGAGGAUCACCCAUGUAAUGACAGGACCGGGACAAUAGUAA [JR_ExcTryptoB_Sub015] | 126 |
| AGUCACAUGAGGAUCACCCAUGUGCCAGAACGAGGACCGGUACGGCCGCCACUCGAGGCGUCCGUCGACAAUAAUGUGAACUGCA [theeternabot_sameState_MS2_Trp_A_48] | 16.7 |
| AGUCUUAUAGGAAGGAGCGCAAUCAUCACAUGAGGAUCACCCAUGUCAAGGUGAGAGUCAUUGCAGGUAGGUCGCCUAACUAAGA [Same State - Arginine B (Freestyle 9)] | 173 |
| UCUUCGUUGGCGUCACAAUUCAUGCAAUGCCGAGGACCGGUACGGCCGCCACUCGGACUAAUACAUGAGGAUCACCCAUGUCGUG [theeternabot_exclusion_MS2_Trp_A_5] | 111 |
| UGAACAUGAGGAUCACCCAUGUAGAGGGAAGGAGCGUCGAAGAAGACAGGUAGGUCGCCCAGAAAGAAAUCCUCAUGGAUAAGAA [Same State Arginine A GF2] | 152 |
